Molecular target: T1, anti-CD20 IgG1 L234S/L235T/G236R (human)
T1 construct: rituximab VH, as in m1; human IgG1 constant region; as the light chain of m1; also called 2–52; variant 52; source: HEK293, transient, purified (Protein A)
Experiment: SPR; antibody captured by biotin-labelled anti-human κ light chain on streptavidin CM5; soluble Fcγ receptor injected at one concentration (12.5 nM to 18 μM); HBS-EP+ pH 7.4, 25°C; Biacore 8K
Conditions: both partners purified

response | Binder
< 1 RU | cynomolgus monkey FcγRIIa extracellular domain, C-terminal hexa-His (receptor) KAVLKLEPPWINVLREDSVTLTCGGAHSPDSDSTQWFHNGNLIPTHTQPSYRFKANNNDSGEYRCQTGRTSLSDPVHLTVLSEWLALQTTHLEFREGETIMLRCHSWKDKPLIKVAFFQNGKSKKFSHMNPNFSIPQANHSHSGDYHCTGNIGYTPYSSKPVTITVQGLSSLVPSVGSSSPTG
< 1 RU | cynomolgus monkey FcγRIIb extracellular domain, C-terminal hexa-His (receptor) TPAAPPKAVLKLEPPWINVLREDSVTLTCGGAHSPDSDSTQWFHNGNLIPTHTQPSYRFKANNNDSGEYRCQTGRTSLSDPVHLTVLSEWLALQTPHLEFREGETIMLRCHSWKDKPLIKVTFFQNGKSKKFSHMDPNFSIPQANHSHSGDYHCTGNIGYTPYSSKPVTITVQVP
< 1 RU | cynomolgus monkey FcγRI extracellular domain, C-terminal hexa-His (receptor) QVDTTKAVITLQPPWVSVFQEETVTLQCEVPRLPGSSSTQWFLNGTATQTSTPSYRITSASVKDSGEYRCQRGPSGRSDPIQLEIHRDWLLLQVSSRVFTEGEPLALRCHAWKDKLVYNVLYYQNGKAFKFFYRNSQLTILKTNISHNGAYHCSGMGKHRYTSAGVSVTVKELFPAPVLNASVTSPLLEGNLVTLSCETKLLLQRPGLQLYFSFYMGSKTLRGRNTSSEYQILTARREDSGFYWCEATTEDGNVLKRSPELELQVLGLQLPTPVWLH
